In the RNAGym collection of RNA variant scans (doi:10.7554/elife.90254):

B1: LINE1-full (parent)
chain: UACGUAGGUGGUUUUCCCCUGAUAGUGCUAAGGGGGCCUGGAAGUUUGGACUGGGCAGAGCUCAACACAGCGUGGCAAAGUGGCUGUGGCUAGACUGCCUCUCUGGAUUCCUCGUCACUCAGCAGGGCAUCUCUGAGAGAAAUGCC

Variants of: B1
Test: self-cleavage, relative activity (ratio to wild type); higher = more cleavage; in vitro, sequencing; the parent is a self-cleaving ribozyme
Work on U26A A107G yielded a self-cleavage of 1.06. U26A A107U gave a self-cleavage of 1.09. Work on U26C G139A yielded a self-cleavage of 1.34. U26C U29C showed a self-cleavage of 1.15. For U26C U47C, the self-cleavage was 1.88. G25A A117U gave a self-cleavage of 1.25. With A24U U39A the self-cleavage was 0.84. Variant U26C A64U has a self-cleavage of 0.61. Work on U26A G70A yielded a self-cleavage of 0.11. In the case of A24U U26C, the self-cleavage is reported as 0.97. U26C C71U showed a self-cleavage of 0.9. Variant A24U C145U has a self-cleavage of 1.4. Variant A24U A67G has a self-cleavage of 0.43. With U26C C28U the self-cleavage was 1.15. Variant U26A U134A has a self-cleavage of 1.23. In the case of U26C U119A, the self-cleavage is reported as 1.25. Work on C28A U39A yielded a self-cleavage of 1.54. In the case of U26A U132C, the self-cleavage is reported as 1.15. Variant U26A G93A has a self-cleavage of 0. Work on U26C U134A yielded a self-cleavage of 1.32. Work on U26A U62A yielded a self-cleavage of 0.05. With U26A U62C the self-cleavage was 0.04. With G27A U29C the self-cleavage was 0.79. With U26C U112A the self-cleavage was 1.63. In the case of U26A A94G, the self-cleavage is reported as 0.24. U26A U45C gave a self-cleavage of 1.37. With U26A U45A the self-cleavage was 0.84. Variant U26C U115A has a self-cleavage of 1.33. U26C U115C showed a self-cleavage of 1.84. Variant G25A U130C has a self-cleavage of 0.8. In the case of U26A U112A, the self-cleavage is reported as 0.9. Variant U26A U112C has a self-cleavage of 1.18. Variant U26G U143A has a self-cleavage of 0.68. Variant G27A U62C has a self-cleavage of 0.08. G25U U104A showed a self-cleavage of 0.77. With C28U A107G the self-cleavage was 0.88. Work on U26A A50G yielded a self-cleavage of 0.92. Work on G27U C61U yielded a self-cleavage of 0.06. U26A A69G gave a self-cleavage of 0.29. U26A A69U showed a self-cleavage of 0.08. In the case of U26A C90U, the self-cleavage is reported as 0.04. In the case of U26C U130A, the self-cleavage is reported as 1.35. U26C U130C gave a self-cleavage of 1.7. U26C A43U showed a self-cleavage of 1.21. U26C A138U showed a self-cleavage of 1.57. For U26C A138G, the self-cleavage was 1.78. U26C A138C showed a self-cleavage of 1.28. Work on U26A U102C yielded a self-cleavage of 1.13. Variant U26A A57C has a self-cleavage of 0.02. For U26C C131A, the self-cleavage was 0.78. Variant U26C C131G has a self-cleavage of 2.07. In the case of G25A A124G, the self-cleavage is reported as 0.63. In the case of C28A U96C, the self-cleavage is reported as 0.17. Work on U26C G144A yielded a self-cleavage of 1.02. A24U G83A showed a self-cleavage of 1.07. For U26A G35U, the self-cleavage was 1.14. Variant U26A G35A has a self-cleavage of 0.67. For U26C A67G, the self-cleavage was 1.16. U26G G122A showed a self-cleavage of 1.81. U26G A77G showed a self-cleavage of 2.53. G27C A67C gave a self-cleavage of 0.1. Work on U26A A31U yielded a self-cleavage of 1.43. Work on A24U U102C yielded a self-cleavage of 1.09. U26C G35C showed a self-cleavage of 2.65. U26C G35U showed a self-cleavage of 1.56. With G25A A107G the self-cleavage was 0.88. Work on G25A A94G yielded a self-cleavage of 0.21. Variant U26C C116U has a self-cleavage of 1.48. U26C C118U showed a self-cleavage of 1.05. For U26C G125U, the self-cleavage was 0.92. Work on U26C G125A yielded a self-cleavage of 1.61. Work on U26A G55A yielded a self-cleavage of 0.25. In the case of U26A U119C, the self-cleavage is reported as 0.97. In the case of U26C G105U, the self-cleavage is reported as 1.57. With G25A A78G the self-cleavage was 1.2. With C28A A92G the self-cleavage was 0.12. With U26C A121G the self-cleavage was 1.64. Work on U26C A121U yielded a self-cleavage of 1.43. Variant U26C A50G has a self-cleavage of 1.14. Work on C28G yielded a self-cleavage of 0.98. Variant C28U has a self-cleavage of 1.08. C28A showed a self-cleavage of 1.07. Work on U26C A65G yielded a self-cleavage of 0.13. Work on U26C A65U yielded a self-cleavage of 0.14. With U26A G53A the self-cleavage was 1.44. Variant G25A G27A has a self-cleavage of 1.03. Work on A24U U132A yielded a self-cleavage of 1.59. With A24U U132C the self-cleavage was 1.07. U26C G122U gave a self-cleavage of 1.05. With G27A U96C the self-cleavage was 0.1. For C28G U39C, the self-cleavage was 0.82. Variant U26A G44A has a self-cleavage of 1. Work on U26C A124U yielded a self-cleavage of 1.25. For U26G A141G, the self-cleavage was 0.97. Work on U26G U39C yielded a self-cleavage of 1. Work on U26G U39A yielded a self-cleavage of 1.12. With U26G G139A the self-cleavage was 1.47. U26C A77C gave a self-cleavage of 1.61. Work on U26C A77G yielded a self-cleavage of 1.93. Work on U26A G82U yielded a self-cleavage of 0.93. In the case of G25A G44A, the self-cleavage is reported as 1.16. In the case of U26C A79U, the self-cleavage is reported as 0.68. Variant U26C A79G has a self-cleavage of 1.01. Work on C28G A77G yielded a self-cleavage of 0.89. U26C U81C gave a self-cleavage of 1.93. U26C U81A gave a self-cleavage of 1.68. G25A U104A gave a self-cleavage of 1.03. U26A U130C gave a self-cleavage of 1.24. In the case of A24U U29A, the self-cleavage is reported as 1.12. U26A U91A gave a self-cleavage of 0.44. In the case of U26C G74A, the self-cleavage is reported as 1.17. Work on U26C G74U yielded a self-cleavage of 1.42. C28G U115C showed a self-cleavage of 0.75. For G25A A64G, the self-cleavage was 0.27. G25A A64U gave a self-cleavage of 0.4. G25A U47C showed a self-cleavage of 0.54. C28U A78G gave a self-cleavage of 1. For A24U U143A, the self-cleavage was 1.13. A24U A79G gave a self-cleavage of 0.97. U26C A107G showed a self-cleavage of 1.33. In the case of U26C C120U, the self-cleavage is reported as 1.17. Work on C28A A57G yielded a self-cleavage of 1.53. C28A A42G gave a self-cleavage of 0.82. Variant A24U G106A has a self-cleavage of 1.51. In the case of U26A U104C, the self-cleavage is reported as 1.28. Variant A24G U134C has a self-cleavage of 1.26. With A24G U134A the self-cleavage was 0.99. U26A A42G gave a self-cleavage of 1.02. U26A A42U gave a self-cleavage of 1.03. Variant U26C A141G has a self-cleavage of 1.27. Variant U26C C146U has a self-cleavage of 1.68. U26A G126A gave a self-cleavage of 0.82. For U26A A67U, the self-cleavage was 0.03. In the case of G27C U100C, the self-cleavage is reported as 1.13. C28A A124G showed a self-cleavage of 0.56. Variant G27A A94U has a self-cleavage of 0.18. In the case of G27A A94G, the self-cleavage is reported as 0.23. Variant U26C G97A has a self-cleavage of 0.07. With C28A G36A the self-cleavage was 1.9. In the case of U26A U46C, the self-cleavage is reported as 1.45. For G27A U102A, the self-cleavage was 1.12. G25A U91C gave a self-cleavage of 0. Work on U26A A30U yielded a self-cleavage of 1.56. U26C A129U showed a self-cleavage of 1.24. Variant U26G A78G has a self-cleavage of 1.31. A24U G40A showed a self-cleavage of 0.71. C28A A67G showed a self-cleavage of 0.55. U26A U39A showed a self-cleavage of 0.99. Variant U26C U108G has a self-cleavage of 2.12. Variant U26C U108C has a self-cleavage of 1.76. With U26C U108A the self-cleavage was 1.5. A24U U46A gave a self-cleavage of 0.91. Work on A24U A43G yielded a self-cleavage of 1.33. Work on C28A A77U yielded a self-cleavage of 1.42. U26A U81A gave a self-cleavage of 1.29. For U26A U81C, the self-cleavage was 0.74. With U26C A92G the self-cleavage was 0.04. With U26C U62C the self-cleavage was 0.1. U26A A92G showed a self-cleavage of 0.05. G27C U52A showed a self-cleavage of 0.91. With U26C U46A the self-cleavage was 0. With U26A A59U the self-cleavage was 0.65. For U26A G32A, the self-cleavage was 0.44. In the case of G25A A42G, the self-cleavage is reported as 1.38. For U26G A31U, the self-cleavage was 1.16. For G27A U115C, the self-cleavage was 1.54. For U26G U108C, the self-cleavage was 1.41.
